The values that follow come from patent US20020127543A1, “Methods and compositions utilizing hepatitis C virus molecules” (priority 1999, published 2002).

The subject of series [1] is Dabsyl peptide with KKQRR core (synthetic). Particulars: FRET quenching.
In series [2] the test system is Dabsyl peptide with QQQQQ core (synthetic). Particulars: FRET quenching, R2 N/A.
Series [3] concerns Dabsyl peptide with KKQKR core (synthetic). Particulars: FRET quenching.
Series [4] has as its system Dabsyl peptide with KKRQR core (synthetic). To be noted: FRET quenching.
The subject of series [5] is Dabsyl peptide with KKKKK core (synthetic). To be noted: FRET quenching.
Series [6] deals with Dabsyl peptide with KKKQR core (synthetic). To be noted: FRET quenching.
Series [7] has as its system Dabsyl peptide with RRRRR core (synthetic). To be noted: FRET quenching, 50 mM Tris pH 7.4, 110 mM KCl.
Series [8] deals with eIF3 (eukaryotic initiation factor 3 complex). Description: EMSA.
For another series, the target named is HCV mIRES RNA. The series can be described thus: FRET titration of fluorescein-labelled RNA with Dabsyl-labelled peptides. The format is binding. Particulars: HCV loopIII RNA 10 nM, pH7.4, 110 mM KCl. The source says: (§1) Oligoribonucleotides with a fluorescein attached to the 5′ end of the molecule (shown in FIG. 6a) were synthesised using conventional oligoribonucleotide techniques. A 19 mer (FIG. 6b) was used for control purposes
(§2) Fluoresein-labeled RNA was titrated with Dabsyl-labelled peptides. The donor (fluorescein) fluoresence was excited at 490 nm. In the presence of peptide, binding leads to a quenching of fluorescence by the non-fluorescent acceptor dye Dabsyl. The quenching curves allow the determination of binding affinities. Fluorescein-labelled RNA containing the mIRES was titrated with various peptides.
(§3) FIG. 7 illustrates binding curves for RNA containing the mIRES titrated with various peptides. Experimental conditions: Fam-labelled RNA (10 nM) was titrated with Dabsyl-labelled peptide in 50 mM Tris/Cl, pH7.4, 110 mM KCl, 5ug/ml BSA, 0.01% Triton X-100, 1%DMSO. Fluorescence (excitation 490 nm/emission at 535 nm) was determined in 96-well plates using a Fluorescence plate reader. The assay volume was 100 μl.
(§4) Dissociation constants were determined by fitting a binding isotherm (1-site-binding) to the titration data using the equation
(§5) Y=((Fmax−Fmin)−((Fmax−Fmin)*c/(Kd+c)))+Fmin

The next series has as its target 19mer control RNA. The series can be described thus: FRET titration of fluorescein-labelled control RNA with Dabsyl-labelled peptides. The format is binding.
Description: as §1, §2, §3, §4, §5

For another series, the target named is IIIB-Dabcyl RNA. Description: Inhibition of paromomycin-TAMRA binding to IIIB-Dabcyl RNA (FRET). Set-up: species or system HCV. As for the experimental part: Measurements were made in a 2 mL cuvette. Increasing amounts of IIIB-Dabcyl RNA (corresponding to the amounts shown in the figure) were added to a solution of 10 nM paromomycin-TAMRA in the presence of 50 mM Tris.HCl pH7.5, 80 mM KCl. For each titration point emission spectra were acquired using a fixed wavelength of 552 nm with the excitation slits set to 5 nm and the emission slits set to 10 nm. Emission spectra were acquired over the range 570-600 nm. Two binding curves are presented, the first in the absence of a test molecule (FIG. 8a) and the second in the presence of 10 μM neomycin (FIG. 8b).

[9] abbreviates: relative to DIII, no complex formed.

Where two headings read alike, the source gives them in different places.

Regarding 19-mer control RNA (FIG. 6b), the Kd in series [1] (R2 N/A), in series [2], in [3] (R2 N/A), in series [4] (R2 N/A), in series [5] (R2 N/A) and in series [6] (R2 N/A) was > 500 nM throughout. Moreover, the Kd in series [7] came to 194 nM.

In series [8] (setting [9]), HCV IRES Domain II (DII) showed a binding signal of 0.5%.

In [8] (reference, 60 mM KCl, 3 mM MgCl2, 200 nM tRNA, on ice, relative affinity by unlabelled RNA competition), HCV IRES Domain III (DIII) displayed a binding signal of 100%.

With HCV mIRES RNA (loop III, FIG. 6a), the Kd in series [1] (50 mM Tris pH 7.4, 110 mM KCl) is 41 nM; in series [2] (50 mM Tris pH 7.4, 110 mM KCl), > 500 nM; in series [3] (50 mM Tris pH 7.4, 110 mM KCl), > 500 nM; in series [4] (50 mM Tris pH 7.4, 110 mM KCl), 104 nM; in [5] (50 mM Tris pH 7.4, 110 mM KCl) it was 49 nM; in series [6] (50 mM Tris pH 7.4, 110 mM KCl), 90 nM. Besides, in [7] (±10, 10 nM RNA), the dissociation constant Kd was 30 nM.

Consider KKKKK, for which the dissociation constant (Kd) was 49 nM on HCV mIRES RNA and > 500 nM on 19mer control RNA.

In the case of KKKQR, the values for the Kd at HCV mIRES RNA and at 19mer control RNA were 90 nM and > 500 nM, respectively.

For KKQKR, the Kd at HCV mIRES RNA and at 19mer control RNA was > 500 nM each time.

As to KKQRR, the dissociation constant (Kd) on HCV mIRES RNA was 41 nM; on 19mer control RNA it was > 500 nM.

As to KKRQR, the Kd was 104 nM on HCV mIRES RNA and > 500 nM at 19mer control RNA.

Neomycin had a Ki at IIIB-Dabcyl RNA (10 nM paromomycin-TAMRA, 10 μM neomycin) of 520 nM. Moreover, the “Inhibition of paromomycin-TAMRA binding to IIIB-Dabcyl RNA (in words)” value with IIIB-Dabcyl RNA (10 uM) is given as “inhibits paromomycin-TAMRA binding to IIIB-Dabcyl RNA”.

On to QQQQQ, for which the Kd on HCV mIRES RNA and at 19mer control RNA was > 500 nM in each case.

On to RRRRR, for which the Kd stood at 30 ± 10 nM at HCV mIRES RNA and 194 nM on 19mer control RNA.

Regarding tRNA, the binding signal in series [8] (setting [9]) is 0.1%.
